From patent publication US20250043004A1 (Janssen / Centocor, published 2025)

Legend:
[1] = molecular target: T1, BCMA (human, UniProt Q02223 1-184); experiment: flow cytometry, H929 cells; antibody has no CD28 arm
T1 construct: whole, on cells; On NCI-H929 myeloma cells, which also carry CD28; also called B-cell maturation antigen; TNFRSF17
T1 sequence (looked up): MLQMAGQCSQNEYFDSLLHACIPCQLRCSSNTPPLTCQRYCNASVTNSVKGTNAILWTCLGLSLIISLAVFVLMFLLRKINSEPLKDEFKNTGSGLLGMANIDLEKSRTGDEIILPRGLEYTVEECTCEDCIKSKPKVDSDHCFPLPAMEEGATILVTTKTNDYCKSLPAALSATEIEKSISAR

[2] = molecular target: T2, T cell receptor Vβ17 on human T cells (human); experiment: flow cytometry, human pan T cells, donor 1; antibody has no CD28 arm
T2 construct: whole, on cells; Vβ17+ fraction (about 5%) of human pan T cells, αβ-enriched T cells or M1-stimulated T cells; also called TCR Vβ17; Vb17
T2 sequence (A0A075B6N1 22-114): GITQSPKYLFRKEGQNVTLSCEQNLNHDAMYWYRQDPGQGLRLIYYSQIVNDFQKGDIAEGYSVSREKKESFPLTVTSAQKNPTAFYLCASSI

[3] = molecular target: T2, T cell receptor Vβ17 on human T cells; experiment: flow cytometry, human pan T cells, donor 2; antibody has no CD28 arm
[4] = molecular target: T3, CD28 (human, UniProt P10747 19-220); experiment: flow cytometry, human pan T cells
T3 construct: whole, on cells; On human pan T cells and on H929 myeloma cells; the assay field says which; also called Cluster of Differentiation 28
Experimental: Post Pan T cell isolation. 0.1×10⁶ cells were seeded per well of a 96 well V-bottom plate. Cells were stained with the fixable violet live/dead stain (L34955, Thermofisher) for 20 mins on ice in dark according to the manufacturer's protocol. Post staining cells were washed with FACS buffer (PBS+2% FBS) by spinning at 1500 rpm for 5 mins. Supernatant was discarded and cells were suspended in 100 μl the respective antibody dilutions with a starting concentration of 5 g/ml and 3-fold serial dilutions. Antibody dilutions were prepared in FACS buffer. Cells were incubated with the antibody dilutions for 30 mins at 37° C. At the end of the incubation period, cells were washed twice with FACS buffer as above followed by staining with PE conjugated Goat polyclonal antibody to human IgG (ab98596, Abcam) at a 1:50 dilution in FACS buffer. Cells were incubated with the secondary antibody for 30 mins on ice. At the end of incubation period the cells were washed with FACS buffer as above. […] Cells were pelleted and resuspended in FACS buffer for acquisition on the NOVOCYTE flow cytometer (ACEA Biosciences). For binding assays using the H929 cells, 0.1×10⁶ H929 cells were seeded per well of a 96 well V-bottom plate and stained as above. Samples were analyzed by gating on the live cells and percentage binding was obtained by subtracting the background fluorescence from the secondary only control. […]

[5] = molecular target: T3, CD28; experiment: flow cytometry, H929 cells (BCMA+, CD28+); whole-cell EC50, antibody has BCMA and CD28 arms
Experimental: (§1) Post Pan T cell isolation. 0.1×10⁶ cells were seeded per well of a 96 well V-bottom plate. Cells were stained with the fixable violet live/dead stain (L34955, Thermofisher) for 20 mins on ice in dark according to the manufacturer's protocol. Post staining cells were washed with FACS buffer (PBS+2% FBS) by spinning at 1500 rpm for 5 mins. Supernatant was discarded and cells were suspended in 100 μl the respective antibody dilutions with a starting concentration of 5 g/ml and 3-fold serial dilutions. Antibody dilutions were prepared in FACS buffer. Cells were incubated with the antibody dilutions for 30 mins at 37° C. At the end of the incubation period, cells were washed twice with FACS buffer as above followed by staining with PE conjugated Goat polyclonal antibody to human IgG (ab98596, Abcam) at a 1:50 dilution in FACS buffer. Cells were incubated with the secondary antibody for 30 mins on ice. At the end of incubation period the cells were washed with FACS buffer as above. […] Cells were pelleted and resuspended in FACS buffer for acquisition on the NOVOCYTE flow cytometer (ACEA Biosciences). For binding assays using the H929 cells, 0.1×10⁶ H929 cells were seeded per well of a 96 well V-bottom plate and stained as above. Samples were analyzed by gating on the live cells and percentage binding was obtained by subtracting the background fluorescence from the secondary only control.

[6] = molecular target: T1, BCMA; experiment: as above
Experimental: as §1

[7] = molecular target: T4, PSMA (human, UniProt Q04609 1-750); experiment: flow cytometry, C4-2B cells
T4 construct: whole, on cells; On LnCaP and C4-2B cells; also called prostate-specific membrane antigen
T4 sequence (Q04609 whole entry): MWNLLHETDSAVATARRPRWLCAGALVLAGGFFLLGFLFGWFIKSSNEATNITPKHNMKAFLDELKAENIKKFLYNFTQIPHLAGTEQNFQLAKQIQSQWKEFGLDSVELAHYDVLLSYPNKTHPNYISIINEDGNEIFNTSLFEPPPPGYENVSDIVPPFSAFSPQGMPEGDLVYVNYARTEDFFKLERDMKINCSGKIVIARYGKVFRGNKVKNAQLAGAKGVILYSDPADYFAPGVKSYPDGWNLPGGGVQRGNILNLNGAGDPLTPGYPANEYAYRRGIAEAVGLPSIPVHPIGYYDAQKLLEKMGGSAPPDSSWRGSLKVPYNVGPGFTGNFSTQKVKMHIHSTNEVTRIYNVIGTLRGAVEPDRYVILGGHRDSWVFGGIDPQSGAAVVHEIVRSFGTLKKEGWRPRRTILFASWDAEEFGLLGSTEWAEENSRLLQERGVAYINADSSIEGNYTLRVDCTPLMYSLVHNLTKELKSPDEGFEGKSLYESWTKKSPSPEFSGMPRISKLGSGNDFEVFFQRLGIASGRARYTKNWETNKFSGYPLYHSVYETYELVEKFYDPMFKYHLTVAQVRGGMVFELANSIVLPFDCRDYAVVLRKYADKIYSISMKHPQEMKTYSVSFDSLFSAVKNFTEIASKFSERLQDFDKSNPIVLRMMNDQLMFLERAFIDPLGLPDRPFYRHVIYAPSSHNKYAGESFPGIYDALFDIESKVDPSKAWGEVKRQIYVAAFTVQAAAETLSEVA

[8] = molecular target: T4, PSMA; experiment: flow cytometry, LnCaP cells
[9] = molecular target: T3, CD28; experiment: flow cytometry, human pan T cells, donor 1
Experimental: (§2) Binding assay. […] Post Pan T cell isolation. 0.1×10⁶ cells were seeded per well of a 96 well V-bottom plate. Cells were stained with the fixable violet live/dead stain (L34955, Thermofisher) for 20 mins on ice in dark according to the manufacturer's protocol. Post staining cells were washed with FACS buffer (PBS+2% FBS) by spinning at 1500 rpm for 5 mins. Supernatant was discarded and cells were suspended in 100 μl the respective antibody dilutions with a starting concentration of 5 g/ml and 3-fold serial dilutions. Antibody dilutions were prepared in FACS buffer. Cells were incubated with the antibody dilutions for 30 mins at 37° C. At the end of the incubation period, cells were washed twice with FACS buffer as above followed by staining with PE conjugated Goat polyclonal antibody to human IgG (ab98596, Abcam) at a 1:50 dilution in FACS buffer. Cells were incubated with the secondary antibody for 30 mins on ice. At the end of incubation period the cells were washed with FACS buffer as above. […] Cells were pelleted and resuspended in FACS buffer for acquisition on the NOVOCYTE flow cytometer (ACEA Biosciences). […] Samples were analyzed by gating on the live cells and percentage binding was obtained by subtracting the background fluorescence from the secondary only control.

[10] = molecular target: T3, CD28; experiment: flow cytometry, human pan T cells, donor 2
Experimental: as §2

[11] = molecular target: T3, CD28; experiment: flow cytometry, human pan T cells, donor 2; remark: listed apart in the source
[12] = molecular target: T3, CD28; experiment: flow cytometry, H929 cells; antibody has no BCMA arm
[13] = molecular target: T3, CD28; experiment: flow cytometry, H929 cells (BCMA+, CD28+); whole-cell EC50, antibody has BCMA and CD28 arms; remark: listed apart in the source
[14] = molecular target: T1, BCMA; experiment: as above; remark: listed apart in the source
[15] = molecular target: T3, CD28; experiment: flow cytometry, human pan T cells, donor 1; remark: listed apart in the source

B1: B17B619 (bispecific antibody, human IgG1)
heavy: QVQLQESGPGLVKPSETLSLTCTVSGYSITSGYFWNWIRQPPGKGLEWIGYISYDGSNNYNPSLKSRVTISRDTSKNQFSLKLSSVTAADTAVYYCASPSPGTGYAVDYWGQGTLVTVSSASTKGPSVFPLAPSSKSTSGGTAALGCLVKDYFPEPVTVSWNSGALTSGVHTFPAVLQSSGLYSLSSVVTVPSSSLGTQTYICNVNHKPSNTKVDKKVEPKSCDKTHTCPPCPAPEAAGGPSVFLFPPKPKDTLMISRTPEVTCVVVSVSHEDPEVKFNWYVDGVEVHNAKTKPREEQYNSTYRVVSVLTVLHQDWLNGKEYKCKVSNKALPAPIEKTISKAKGQPREPQVYVYPPSREEMTKNQVSLTCLVKGFYPSDIAVEWESNGQPENNYKTTPPVLDSDGSFALVSKLTVDKSRWQQGNVFSCSVMHEALHNRFTQKSLSLSPG
light: DIQMTQSPSSLSASVGDRVTITCRSSQSLVHSSGNTYLHWYQQKPGKAPKFLIYKVSNRFSGVPSRFSGSGSGTDFTLTISSLQPEDFATYYCSQSTHVPFTFGQGTKLEIKRTVAAPSVFIFPPSDEQLKSGTASVVCLLNNFYPREAKVQWKVDNALQSGNSQESVTEQDSKDSTYSLSSTLTLSKADYEKHKVYACEVTHQGLSSPVTKSFNRGEC
scFv-Fc: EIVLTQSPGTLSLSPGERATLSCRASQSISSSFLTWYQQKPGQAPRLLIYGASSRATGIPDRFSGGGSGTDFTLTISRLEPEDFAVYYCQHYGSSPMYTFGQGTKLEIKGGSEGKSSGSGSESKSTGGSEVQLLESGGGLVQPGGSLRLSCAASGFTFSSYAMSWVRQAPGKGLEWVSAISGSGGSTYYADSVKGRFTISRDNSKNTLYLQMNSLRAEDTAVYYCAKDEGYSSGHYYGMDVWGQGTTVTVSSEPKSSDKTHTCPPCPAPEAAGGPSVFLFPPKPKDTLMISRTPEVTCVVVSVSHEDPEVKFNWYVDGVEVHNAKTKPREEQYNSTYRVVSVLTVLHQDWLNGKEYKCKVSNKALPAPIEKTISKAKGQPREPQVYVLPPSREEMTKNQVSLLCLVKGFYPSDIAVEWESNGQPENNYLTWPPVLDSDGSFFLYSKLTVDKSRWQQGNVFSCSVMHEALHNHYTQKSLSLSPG
notes: Human IgG1; also called Vβ17-Fab×BCMA-ScFv; Vb17-B17B21-N33S-Fab-RF × BCMB519-LH-scFv; copies: 1 + 1 + 1
- EC50 [1]: 0.122 mg/L
- EC50 [2]: 0.159 mg/L
- EC50 [3]: 0.124 mg/L

B2: VB28B7 (bispecific antibody)
heavy 1: not shown
light 1: DIQMTQSPASLSASVGETVTITCGASENIYGSLNWYQRKQGKSPQLLIYGATNLADGMSSRFSGSGSGRQFSLKISSLHPDDVATYYCQNLLSTPYTFGGGTKLELKRTVAAPSVFIFPPSDEQLKSGTASVVCLLNNFYPREAKVQWKVDNALQSGNSQESVTEQDSKDSTYSLSSTLTLSKADYEKHKVYACEVTHQGLSSPVTKSFNRGEC
heavy 2: not shown
light 2: DIQMTQSPASLSASVGETVTITCGASENIYGSLNWYQRKQGKSPQLLIYGATNLADGMSSRFSGSGSGRQFSLKISSLHPDDVATYYCQNLLSTPYTFGGGTKLELKRTVAAPSVFIFPPSDEQLKSGTASVVCLLNNFYPREAKVQWKVDNALQSGNSQESVTEQDSKDSTYSLSSTLTLSKADYEKHKVYACEVTHQGLSSPVTKSFNRGEC
notes: also called Vβ28B7; C28B19 × Null × BCMB519
- EC50 [4]: 0.06 mg/L
- EC50 [5]: 0.1 mg/L
- EC50 [6]: 0.1 mg/L

B3: VB28B31 (bispecific antibody, human IgG1, kappa, L234A L235A)
scFv: not shown
heavy: QVQLQQPGSELVRPGASVKLSCKASGYTFTSYWMHWVKQRHGQGLEWIGNIYPGSGRTNYDEKFKSKGTLTVDTSSRTAYMHLSSLTSEDSAVYYCTREHYGSNSHPMDYWGQGTSVTVSSASTKGPSVFPLAPSSKSTSGGTAALGCLVKDYFPEPVTVSWNSGALTSGVHTFPAVLQSSGLYSLSSVVTVPSSSLGTQTYICNVNHKPSNTKVDKKVEPKSCDKTHTCPPCPAPEAAGGPSVFLFPPKPKDTLMISRTPEVTCVVVSVSHEDPEVKFNWYVDGVEVHNAKTKPREEQYNSTYRVVSVLTVLHQDWLNGKEYKCKVSNKALPAPIEKTISKAKGQPREPQVYTLPPSREEMTKNQVSLSCAVKGFYPSDIAVEWESNGQPENNYKTTPPVLDSDGSFFLVSKLTVDKSRWQQGNVFSCSVMHEALHNRFTQKSLSLSPGK
light: DIQMTQSPASLSASVGETVTITCGASENIYGSLNWYQRKQGKSPQLLIYGATNLADGMSSRFSGSGSGRQFSLKISSLHPDDVATYYCQNLLSTPYTFGGGTKLELKRTVAAPSVFIFPPSDEQLKSGTASVVCLLNNFYPREAKVQWKVDNALQSGNSQESVTEQDSKDSTYSLSSTLTLSKADYEKHKVYACEVTHQGLSSPVTKSFNRGEC
notes: PSMA × CD28, human IgG1; also called Vβ28B31
- EC50 [7]: 1.22 mg/L
- EC50 [8]: 0.15 mg/L
- EC50 [9]: 1.29 mg/L
- EC50 [10]: 0.95 mg/L

B4: VB28B33 (bispecific antibody)
scFv: not shown
heavy: QVQLQQPGSELVRPGASVKLSCKASGYTFTSYWMHWVKQRHGQGLEWIGNIYPGSGRTNYDEKFKSKGTLTVDTSSRTAYMHLSSLTSEDSAVYYCTREHYGSNSHPMDYWGQGTSVTVSSASTKGPSVFPLAPSSKSTSGGTAALGCLVKDYFPEPVTVSWNSGALTSGVHTFPAVLQSSGLYSLSSVVTVPSSSLGTQTYICNVNHKPSNTKVDKKVEPKSCDKTHTCPPCPAPEAAGGPSVFLFPPKPKDTLMISRTPEVTCVVVSVSHEDPEVKFNWYVDGVEVHNAKTKPREEQYNSTYRVVSVLTVLHQDWLNGKEYKCKVSNKALPAPIEKTISKAKGQPREPQVYTLPPSREEMTKNQVSLSCAVKGFYPSDIAVEWESNGQPENNYKTTPPVLDSDGSFFLVSKLTVDKSRWQQGNVFSCSVMHEALHNRFTQKSLSLSPGK
light: DIQMTQSPSSLSASVGDRVTITCRSSQSLVHSSGNTYLHWYQQKPGKAPKFLIYKVSNRFSGVPSRFSGSGSGTDFTLTISSLQPEDFATYYCSQSTHVPFTFGQGTKLEIKGGSEGKSSGSGSESKSTGGSQVQLQESGPGLVKPSETLSLTCTVSGYSITSGYFWNWIRQPPGKGLEWIGYISYDGSNNYNPSLKSRVTISRDTSKNQFSLKLSSVTAADTAVYYCASPSPGTGYAVDYWGQGTLVTVSSGGSEGKSSGSGSESKSTGGSDIQMTQSPASLSASVGETVTITCGASENIYGSLNWYQRKQGKSPQLLIYGATNLADGMSSRFSGSGSGRQFSLKISSLHPDDVATYYCQNLLSTPYTFGGGTKLELKRTVAAPSVFIFPPSDEQLKSGTASVVCLLNNFYPREAKVQWKVDNALQSGNSQESVTEQDSKDSTYSLSSTLTLSKADYEKHKVYACEVTHQGLSSPVTKSFNRGEC
notes: Null × CD28 × Vβ17, human IgG1; also called Vβ28B33
- EC50 [10]: > 10 mg/L
- EC50 [11]: > 10 mg/L
- EC50 [12]: 1.4 mg/L

B5: VB28B36 (bispecific antibody)
scFv: not shown
heavy: QVQLQQPGSELVRPGASVKLSCKASGYTFTSYWMHWVKQRHGQGLEWIGNIYPGSGRTNYDEKFKSKGTLTVDTSSRTAYMHLSSLTSEDSAVYYCTREHYGSNSHPMDYWGQGTSVTVSSASTKGPSVFPLAPSSKSTSGGTAALGCLVKDYFPEPVTVSWNSGALTSGVHTFPAVLQSSGLYSLSSVVTVPSSSLGTQTYICNVNHKPSNTKVDKKVEPKSCDKTHTCPPCPAPEAAGGPSVFLFPPKPKDTLMISRTPEVTCVVVSVSHEDPEVKFNWYVDGVEVHNAKTKPREEQYNSTYRVVSVLTVLHQDWLNGKEYKCKVSNKALPAPIEKTISKAKGQPREPQVYTLPPSREEMTKNQVSLSCAVKGFYPSDIAVEWESNGQPENNYKTTPPVLDSDGSFFLVSKLTVDKSRWQQGNVFSCSVMHEALHNRFTQKSLSLSPGK
light: not shown
notes: Null × CD28 × BCMA, human IgG1; also called Vβ28B36
- EC50 [13]: < 0.0046 mg/L
- EC50 [14]: < 0.0046 mg/L

B6: VB28B38 (bispecific antibody, human IgG1, kappa, L234A L235A)
scFv: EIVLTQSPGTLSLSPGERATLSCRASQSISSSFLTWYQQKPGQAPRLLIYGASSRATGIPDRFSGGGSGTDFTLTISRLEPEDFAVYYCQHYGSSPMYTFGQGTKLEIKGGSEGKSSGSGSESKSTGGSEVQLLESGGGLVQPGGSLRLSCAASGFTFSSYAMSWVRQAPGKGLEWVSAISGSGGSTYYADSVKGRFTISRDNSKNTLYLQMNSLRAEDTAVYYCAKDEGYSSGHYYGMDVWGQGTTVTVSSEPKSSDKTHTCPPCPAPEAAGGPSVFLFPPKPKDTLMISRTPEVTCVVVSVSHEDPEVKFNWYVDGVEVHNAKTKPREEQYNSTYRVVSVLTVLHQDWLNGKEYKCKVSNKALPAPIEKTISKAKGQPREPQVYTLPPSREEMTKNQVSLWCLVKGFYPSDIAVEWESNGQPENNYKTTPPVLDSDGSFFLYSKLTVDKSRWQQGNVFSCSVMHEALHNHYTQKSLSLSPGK
heavy: QVQLQQPGSELVRPGASVKLSCKASGYTFTSYWMHWVKQRHGQGLEWIGNIYPGSGRTNYDEKFKSKGTLTVDTSSRTAYMHLSSLTSEDSAVYYCTREHYGSNSHPMDYWGQGTSVTVSSASTKGPSVFPLAPSSKSTSGGTAALGCLVKDYFPEPVTVSWNSGALTSGVHTFPAVLQSSGLYSLSSVVTVPSSSLGTQTYICNVNHKPSNTKVDKKVEPKSCDKTHTCPPCPAPEAAGGPSVFLFPPKPKDTLMISRTPEVTCVVVSVSHEDPEVKFNWYVDGVEVHNAKTKPREEQYNSTYRVVSVLTVLHQDWLNGKEYKCKVSNKALPAPIEKTISKAKGQPREPQVYTLPPSREEMTKNQVSLSCAVKGFYPSDIAVEWESNGQPENNYKTTPPVLDSDGSFFLVSKLTVDKSRWQQGNVFSCSVMHEALHNRFTQKSLSLSPGK
light: DIQMTQSPASLSASVGETVTITCGASENIYGSLNWYQRKQGKSPQLLIYGATNLADGMSSRFSGSGSGRQFSLKISSLHPDDVATYYCQNLLSTPYTFGGGTKLELKRTVAAPSVFIFPPSDEQLKSGTASVVCLLNNFYPREAKVQWKVDNALQSGNSQESVTEQDSKDSTYSLSSTLTLSKADYEKHKVYACEVTHQGLSSPVTKSFNRGEC
notes: BCMA × CD28, human IgG1; also called Vβ28B38
- EC50 [15]: 1.27 mg/L
- EC50 [11]: 1.08 mg/L
- EC50 [13]: < 0.0046 mg/L
- EC50 [14]: < 0.0046 mg/L

B7: VB28B40 (bispecific antibody, human IgG1, kappa, L234A L235A)
scFv: DIQMTQSPSSLSASVGDRVTITCRSSQSLVHSSGNTYLHWYQQKPGKAPKFLIYKVSNRFSGVPSRFSGSGSGTDFTLTISSLQPEDFATYYCSQSTHVPFTFGQGTKLEIKGGSEGKSSGSGSESKSTGGSQVQLQESGPGLVKPSETLSLTCTVSGYSITSGYFWNWIRQPPGKGLEWIGYISYDGSNNYNPSLKSRVTISRDTSKNQFSLKLSSVTAADTAVYYCASPSPGTGYAVDYWGQGTLVTVSSEPKSSDKTHTCPPCPAPEAAGGPSVFLFPPKPKDTLMISRTPEVTCVVVSVSHEDPEVKFNWYVDGVEVHNAKTKPREEQYNSTYRVVSVLTVLHQDWLNGKEYKCKVSNKALPAPIEKTISKAKGQPREPQVYTLPPSREEMTKNQVSLWCLVKGFYPSDIAVEWESNGQPENNYKTTPPVLDSDGSFFLYSKLTVDKSRWQQGNVFSCSVMHEALHNHYTQKSLSLSPGK
heavy: not shown
light: not shown
notes: Vβ17 × null × BCMA, human IgG1; not used; also called Vβ28B40
- EC50 [1]: 0.121 mg/L
- EC50 [2]: 1.12 mg/L
- EC50 [3]: 1.21 mg/L
